Reference: the nanobody polyreactivity screen of Harvey et al. (2022)

Test: yeast display, Sf9 membrane polyspecificity reagent, FACS + sequencing; frameworks hold sequencing errors
Outline: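 A nanobody's polyreactivity label depends on the gate it was sorted from. Yeast display cells were stained with 10% biotinylated, detergent-solubilized Sf9 membrane reagent for 1 hour at 4 °C, enriched on streptavidin microbeads and sorted by FACS. The low and high (top ~1%) gates were set on anti-HA fluorescence for expression and streptavidin fluorescence for reagent binding.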

Question: For “QVQLVESGGGLVQAGGSLRLSCAASGITFPRYAMGGYRPAPGKERELVATITRTGRTNYADSVKGRFTISRDNAKNTVYLQKNSLKPEDTPVYYCAARNRRERKGKMDYWGQGTQVTVSS”, which “polyreactivity (PSR sort gate)” value is on record?
Answer: The value was “high polyreactivity”.

Question: For “QVQLVESGGGLVQAGGSLRLSCAASGHIFGGNAMGWYRQAPGKEMELVATISSGGSTHYADSVKGRFTISRDNAKNTVYLQMHSLKPEDTAVYYCAARRSYRATAYKYDYWGQGTHVTVSS”, which “polyreactivity (PSR sort gate)” value is on record?
Answer: The value was “low polyreactivity”.

Question: Which “polyreactivity (PSR sort gate)” value does the source give for “QVQLVESGGGLVQAGGSLRLSCAAAGSTFHRYVMGWYRQAPGQERELVAVINSTGGSTYYADSVKGRFTISRDNAKNTVYLQMKCLKPEDTAVYYCARVTRRGPGYSTLFSRYDYWGQGTQVTVSS” here?
Answer: The value was “low polyreactivity”.

Question: With “QVQLVESGGGLVQAGGSLRLSCAASGIILYRYAMGWYRPAPGKERELVAAISRSGGNTYYADSVKGRFTISRDNAKNTVYLQMNSLKPEDTAVYYCAAKPLQGVRRVEYWGQGTQVTVSS” as the sequence, how does the “polyreactivity (PSR sort gate)” value read?
Answer: The value was “high polyreactivity”.

Question: Which “polyreactivity (PSR sort gate)” value does the source give for “QVQLVESGGGLVQAGGSLRLSCAASGIILYGYAMGWYRQAPGKERELVAAISRRGGITYYADSVKGRFTISRDNAKNTVYLQMNSLKPEDTAVYYCAADWYGYRQFHGYYWGQGTQVTVSS” here?
Answer: Its value is “high polyreactivity”.

Question: For “QVQLVESGGGLVQAGGSLRLSCAASGFNFRGYAMGWYRQAPGKERELVAAINSGDSTNYADSVKGRFTISRDNAKNTVYLQMNSLKPEDTAVYYCAASIYAALNGGPGYDYWGQGTQVTVSS”, which “polyreactivity (PSR sort gate)” value is on record?
Answer: The value was “low polyreactivity”.

Question: For “QVQLLESGGGLVQAGGSLRLSCAASGSIYVYNAMAWYRQAPGKERELVAAISRGGRTYADSVKGRFTISRDNAKNTVYLQMNSLKPEDTAVYYCAAQGYYRSWYSRQGHYDFWGQGTQVTVSS”, which “polyreactivity (PSR sort gate)” value is on record?
Answer: Its value is “high polyreactivity”.

Question: With “QVQLVESGGRLVQAGGRLRLSCAASGFTFGSYAMGWYRQAPGKERELVPSISSAGRTYYADSVKGRFTISRDNAKNTVYLQMNSLKPEDTAVYYCNTDSRVTIYDYDYWGQGTQVTVSS” as the sequence, how does the “polyreactivity (PSR sort gate)” value read?
Answer: Its value is “low polyreactivity”.

Question: For “QVQLVESGGGLVQAGGSLRLSCAASGSTFYLYVMGWYRQAPGKERELVAAIRRSGTRTYYADSVKGRFTISRDNAKNTVYLQMNSLKPEDTAVYYCAARYSRPSKAYGYWGQGTQVTVSS”, which “polyreactivity (PSR sort gate)” value is on record?
Answer: The value was “high polyreactivity”.

Question: Which “polyreactivity (PSR sort gate)” value does the source give for “QVQLVESGGGLVQAGGSLRLSCAASRIIFSYNPMGWYRQAPGKERELVAASSYGGRTYYAVSVKGRFTISRDNAKNTVDLQMKSLKPEDTAVYYCATRSPHRLYGDYYDYWGLGTQVTVSS” here?
Answer: The value was “high polyreactivity”.

Question: For “QVQLVESGGGLVQAGGSLRLSCAASGSSFFSNAMGWYRQAPGKERELVASIRSGTRTNYADSVKGRFTISRDNAKNTVYLLMNILKPADTAVYYCAKKWGLDKHRIGHRRLDYWGQGTQVTVSS”, which “polyreactivity (PSR sort gate)” value is on record?
Answer: Its value is “low polyreactivity”.

Question: Which “polyreactivity (PSR sort gate)” value does the source give for “QVQLVESGGGLVQAGGSLRLSCAASGIIFYYYAKGWYRQSPGKERELVAAISSSGGRTRYADSVKGRFTISRDNAKNTVFLQMNSLKPEDSAVYYCAAEFIRGYGESYDYWGQGTQVTVSS” here?
Answer: The value was “low polyreactivity”.

Question: With “QVQLVESGGGLGQAGGSLRLTCAASGSIFRSYAMGWYRQAPGKESEFVATISSSTGSTYYADSVKGRFSISRDNAKNTVYLPMNSLKPEFTAVYYCAAVQPVKSSSGYHFWYYWGQGTQVTVSS” as the sequence, how does the “polyreactivity (PSR sort gate)” value read?
Answer: The value was “high polyreactivity”.

Question: With “QVQLVESGGGLVQAGGSLRLSCAASGSTFGDYSMGWYRQAPGKERELVAAISRGGSTYYADSVKGRFTISRDNAKNTVYLQMNSLKPEDTAVYYCNNDVGYSASPDGSTFDYWGQGTQVTVSS” as the sequence, how does the “polyreactivity (PSR sort gate)” value read?
Answer: Its value is “low polyreactivity”.

Question: Which “polyreactivity (PSR sort gate)” value does the source give for “QLQLVESVGGLVQAGGSLRLSCAASGGIFNVNALGWYRQAPGKERELVAAISLSGSNTYYADSVKGRFTISRDNAKNTVYLQMNSLKPEDTAVYYCNADYVYRRYGYWGQGTQVTVSS” here?
Answer: Its value is “high polyreactivity”.

Question: For “QVQLVESGGGLVQAGGSLRLSCSASGYIFDYNAMGWYIQAPGKERELVAAITFRDGSTYADSVKGRFTISRDNAKNTVYLQMNSLKPEDTAVYYCNRRSQVHSHSKHDYWGQGTQVTVSS”, which “polyreactivity (PSR sort gate)” value is on record?
Answer: Its value is “low polyreactivity”.

Question: For “QVQLVESGGGLVQAGGSLRISCAASGRIFYGNAMGWYRQAPGKERELVAAIRRSGGSTYYADSVKGRFTISRDNAKNTVYLQMNSLKPEDTAVYYCNVDSGEFDYVWVYTYDYWGQGTQVTVSS”, which “polyreactivity (PSR sort gate)” value is on record?
Answer: Its value is “low polyreactivity”.

Question: Which “polyreactivity (PSR sort gate)” value does the source give for “QVQLVESGGGLVQAGGSLRLSCAASGRIFGPYAMGWSRQAPGKERELVATITWRTGSTYYADSVKGRFTISRDNAKNTVYLQMNSLKPEDTEVYYSAARYGRYSKAGDYWGQGTQVTVSS” here?
Answer: Its value is “high polyreactivity”.

Question: For “QVQLVESGGGLVQAGGSLRLSCAASGFIFYRYTLGWSRQAPGKERELVAAITSGGSTYYADSVKGRFTISRDNAKNTVYLQMNSLKPEDSAVYYCAAAYQRWFNRRDYWGQGTQVTVSS”, which “polyreactivity (PSR sort gate)” value is on record?
Answer: The value was “high polyreactivity”.

Question: Which “polyreactivity (PSR sort gate)” value does the source give for “QGQLVESGGGLVQAGGSLRLSCAASGSTFAYYAMGWYRQAPGKERELVAAINTTTGSTFYADSVKGRFTISRDNAKNTVYLQMNSLKPEDTAGYYCAAGVTGPSDDYDYWGQGTQVTVSS” here?
Answer: Its value is “low polyreactivity”.

Question: For “QVQLVESGGGLVQAGGRLRLSCAASGTIFDFYAMGWYRQAPGKERELVATITASGGSTYYADSVKGRFTISRDNAKNTVYLQMKSLKPEDTAVYYCAAVGPHWYGQGWALYRFEYWGQGTQVTVSS”, which “polyreactivity (PSR sort gate)” value is on record?
Answer: Its value is “low polyreactivity”.

Question: Which “polyreactivity (PSR sort gate)” value does the source give for “QVQIEESGGRLVQAGGILRLSCAASGRPFNVNFKGWNRQAPGKEWELVAAIRYTGGSTYADSVKGRFTISRDNAKNTVYLQMNSLKPEDTAVYYCNADTVFPFDHGMDYWGQGTQVTVSS” here?
Answer: Its value is “low polyreactivity”.

Question: For “QVQLVESGGGLVQAGGSLRLSCAASGSIFWFNAMGWYRQAPGKERELVAAINSSGGRTYYADSVKGRFTISRDNAKNTVYLQMNSLKPEDTAVYYCNALLWGNPASYGYWGQGTQVTVSS”, which “polyreactivity (PSR sort gate)” value is on record?
Answer: The value was “high polyreactivity”.

Question: For “QVQLVESGGGLVQAVGTLRLSCAASGSIFGYNAMGWYRHAPAKEREFVAAIRWSSGSTYYADSVKGRFTISRDNAMNTVFLQMNSLKPEDTAVNYCATRQTYLYWGQGTQVTVSS”, which “polyreactivity (PSR sort gate)” value is on record?
Answer: The value was “high polyreactivity”.

Question: With “QLQLVESGAGLVQAGGSLRLICAASGSIFKSYAMGWYRQAPGKQMEFVAAISWSGGSTYADSVKGRFTISRDNAKNTVYLQMNSLKPEDTAVYYCNKDDYWFLGFYYWGQGTQVTVSS” as the sequence, how does the “polyreactivity (PSR sort gate)” value read?
Answer: The value was “low polyreactivity”.

Question: For “QVQLEESGGGLVQAGGSLRLRCAASGRTFGYYAMGWYRQAPGKERQLVASITSGGRTYYADSVKGRFTISRDNSKNTVYLQMNSLKPEDTAVFYCAADRFGIGGKSGNDYWGQGTQVTVSS”, which “polyreactivity (PSR sort gate)” value is on record?
Answer: Its value is “high polyreactivity”.

Question: For “QVQLVESGGGLVQAGGRLRLSCAASLYIYGGYGMGWYRKAPGKERELVAVITSSVSTDYADSVKGSFTISRDNAKNTVYLQMKSLKPEDTAVYYSSADFLWYIYNIGTSLEFEYWGQGTQVTVSS”, which “polyreactivity (PSR sort gate)” value is on record?
Answer: Its value is “low polyreactivity”.

Question: With “QVQLVESGGGLLQAGGSLRLSCAASGFIFRFNAMGWYRQAPWTERELVAVIRWSSGSTYYADSVKGRFTISRDNAKNTVYLQMNSRKPEDTAVYYCAAVDDEYSIVWYDYWGQGTQVTVSA” as the sequence, how does the “polyreactivity (PSR sort gate)” value read?
Answer: Its value is “low polyreactivity”.

Question: Which “polyreactivity (PSR sort gate)” value does the source give for “QVQLVESGGGLVQAGGSLRLSCAASGRTFQYYAMGWYRQAPGKERELVAAISSGGSTYYADSVKGRFTISRDNAKNTVYLQMNSLKPEDTAVYYCTARWGYRRGYWGQGTQVTVSS” here?
Answer: Its value is “high polyreactivity”.

Question: For “QVQLVESGGGLVQAGGSLRLSCAASGSTFYLYAMGWYRQAPGKERELVAAIRGGGITNYADSVKGRFTISRDNAKNTVYLQINSLKPEDTAVYYCAADSTLRGFDYWGQGTQVTVSS”, which “polyreactivity (PSR sort gate)” value is on record?
Answer: The value was “high polyreactivity”.

Question: Which “polyreactivity (PSR sort gate)” value does the source give for “QVQLVESGGGLVQAGGSLRLSCAASGSIFDYYTMGWYRQAPGKERELVATIRSGDSTNYADSVKGRFTISRDNAKNPVYVQMNSLKPEDTAVYYCAADDGAYPTLYDYWGQGTQVTVSS” here?
Answer: Its value is “low polyreactivity”.

Question: Which “polyreactivity (PSR sort gate)” value does the source give for “QVQLVESGGGLVQAGGSLRISCAASGSTFAYNAMGWYIQAPGKERELVAVISKGGGRTYYADSVKGRFTISRDNAKNTVYLQINSLKPEDTAVYYCAARYIPVYTREREYNYWGQGTQVTVSS” here?
Answer: Its value is “high polyreactivity”.
